Experimental data reported in PMC11873932, “PSKH1 kinase activity is differentially modulated via allosteric binding of Ca^2+ sensor proteins” (Proceedings of the National Academy of Sciences of the …, 2025).
Values belong to the binder of their own block, whether it stands above or below them.

Columns and labels:
[1] = target: T1, Protein Serine Kinase H1 (PSKH1), recombinant full-length, wild type (human, UniProt P11801 1-424); test: cell-based or functional assay
T1 sequence (looked up): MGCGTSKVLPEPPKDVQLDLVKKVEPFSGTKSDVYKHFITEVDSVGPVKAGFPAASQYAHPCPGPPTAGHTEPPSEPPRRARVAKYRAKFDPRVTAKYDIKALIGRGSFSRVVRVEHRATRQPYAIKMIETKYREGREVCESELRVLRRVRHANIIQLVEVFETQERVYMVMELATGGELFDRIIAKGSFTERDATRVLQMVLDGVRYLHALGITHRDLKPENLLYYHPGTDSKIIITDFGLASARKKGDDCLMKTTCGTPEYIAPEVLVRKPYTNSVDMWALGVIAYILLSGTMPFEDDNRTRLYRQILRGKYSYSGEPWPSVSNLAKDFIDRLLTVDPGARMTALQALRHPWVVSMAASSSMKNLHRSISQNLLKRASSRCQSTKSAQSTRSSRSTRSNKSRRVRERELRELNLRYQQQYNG

[2] = target: T1, Protein Serine Kinase H1 (PSKH1), …; test: cross-linking; SDA (NHS-Diazirine, 1 mg/mL) cross-linking mass spectrometry; recombinant full-length PSKH1 with Calmodulin, RCN3 or UNC119B at 1:2 molar ratio; 30 min in the dark at room temperature, UV 365 nm; bands cut from reducing SDS-PAGE, trypsin; settings: both partners purified

- radiometric kinase assay (ADR1 peptide phosphorylation) of HA-tagged PSKH1 (10 ng) with Ca2+-RCN3 (1 uM) [1]: ~2 fold
B1: Reticulocalbin-3 (RCN3), recombinant (His6-RCN3) (natural protein, human, UniProt Q96D15 21-328, looked up)
chain: KPSPDAGPHGQGRVHQAAPLSDAPHDDAHGNFQYDHEAFLGREVAKEFDQLTPEESQARLGRIVDRMDRAGDGDGWVSLAELRAWIAHTQQRHIRDSVSAAWDTYDTDRDGRVGWEELRNATYGHYAPGEEFHDVEDAETYKKMLARDERRFRVADQDGDSMATREELTAFLHPEEFPHMRDIVIAETLEDLDRNKDGYVQVEEYIADLYSAEPGEEEPAWVQTERQQFRDFRDLNKDGHLDGSEVGHWVLPPAQDQPLVEANHLLHESDTDKDGRLSKAEILGNWNMFVGSQATNYGEDLTRHHDEL

- binding result [2]: binds
B2: UNC119B, recombinant full-length (natural protein)
chain: not shown
notes: UNC119B, human, full length
